Experimental data as given in article PMC4414150, “Zfra activates memory Hyal-2+ CD3− CD19− spleen cells to block cancer growth, stemness, and metastasis in vivo” (Oncotarget, 2015).

Molecular target: T1, Zfra16–31
T1 construct: Zfra, residues 16-31; also called Zfra peptide of amino acid #16–31; source: synthetic peptide (manual synthesis, Genemed Synthesis)
T1 peptide: FRAHTQKNAATPFLAN
Experiment: SDS-PAGE of the incubated peptide (ladder of polymers); peptides alone (2 mM in 100 μl PBS) or mixed together, room temperature, 24 hr (legend; the text says sterile MilliQ water, 48 hr); non-reducing and reducing gels; less polymerization in MilliQ water
Settings: both partners purified

B1: Zfra1–15 (peptide)
peptide: MSSRRSSSCKYCEQD
notes: Zfra, residues 1-15; also called Zfra peptide of amino acid #1–15; source: synthetic peptide (manual synthesis, Genemed Synthesis)
  binding result: binds
